From patent US20260139057A1 (University of California, published 2026) come the findings set out here.

As a reminder, the Kd is the constant that tells how readily two partners part at equilibrium.

Residue numbers refer to the chain shown, from its start.

Assay [1] deals with integrin αvβ6 ectodomain (immobilized) (human, UniProt P06756 31-992; P18564 22-709).
Assay [2] concerns the target T1, recombinant human integrin αvβ8 ectodomain (human, UniProt P06756 31-992; P26012 43-681). In words: cell-based or functional assay.
For assay [3], the target named is T2, human integrin αvβ8 on transfected cells (CHO cells stably transfected; HEK 293 cells stably expressing αvβ8) (human, UniProt P06756 31-1048; P26012 43-769).
T2 construct: whole, on cells; also called CHO αvβ8 cells; αvβ8 expressing CHO cells
In words: flow cytometry on CHO cells expressing human αvβ8 fixed in 2% buffered formalin for 15 min, antibody titrated, hyperbolic least-squares fit (m3 = KD); curves on D00025 [Cont.]. As to the method: (§1) FIG. 17: Characterization of cell surface binding of humanized affinity optimized anti-αvβ8 antibodies. The cell surface binding affinities of H4C8, H4G9, H4C10, H4G8 compared to HuC6D4F12 expressed as IgG4 (S228P to prevent arm exchange, R409K and L445P to reduce aggregation and to promote stability). […] Cell surface affinity was determined using the least-squares fit model based on the hyperbolic equation y=m1+m2*m0/(m3+m0), where y=MFI at different avb8 concentrations; m0=αvβ8 concentration; m1=MFI with no αvβ8; m2=MFI at saturation; and m3=KD.
(§2) FIG. 18: Binding characteristics of H4C8 of formalin fixed αvβ8 compared to HuC6D4F12 or ADWA11 2.4 (from Pat no. US2020/0079855 A1). CHO αvβ8 expressing cells were fixed in 2% buffered formalin in PBS for 15 min at RT and then stained at the indicated concentrations as described in FIG. 17. The binding affinities to unfixed or formalin fixed cells is shown. Cell surface affinity was determined using the least-squares fit model based on the hyperbolic equation y=m1+m2*m0/(m3+m0), where y=MFI at different αvβ8 concentrations; m0=αvβ8 concentration; m1=MFI with no αvβ8; m2=MFI at saturation; and m3=KD.
In general terms: In flow cytometry, cells or beads pass a laser one at a time.

Assay [4] concerns the target T2, human integrin αvβ8 on transfected …. In words: flow cytometry on unfixed CHO cells expressing human αvβ8, antibody titrated, hyperbolic least-squares fit (m3 = KD); curves on D00025 [Cont.]. How it is done: as §1, §2
Assay [5] concerns the target T1, recombinant human integrin αvβ8 …. In words: cell-based or functional assay. This is another data set of the same source.
The target is the same in assay [6]. In words: cell-based or functional assay. The source holds these as a separate data set.
The target is the same in assay [7]. Description: cell-based or functional assay. This is another data set of the same source.
Assay [8] shares this target. Description: cell-based or functional assay. The source holds these as a separate data set.
For assay [9] the target is unchanged. Description: KinExA; antibody format and antigen form not stated.
For assay [10] the target is unchanged. Description: yeast-displayed scFv titrated with αvβ8 ectodomain, flow cytometry, hyperbolic fit. As to the method:
After induction and screening of the pooled transformants for scFV expression using anti-V5 (clone SV5), the avb8 ectodomain was incubated with the yeast pool, washed and scFV which bound to αvβ8 were detected using anti-human αv (clone 8β8). After multiple rounds of selection by sorting yeast stained under conditions of increasing stringency (Low Ag concentration, short Kon and long Koff), individual clones were isolated, sequenced and tested for binding affinity. Shown are the sequences of VH and VL pairs enriched in the library. The binding affinities of representative yeast clones was determined using a least-squares fit model based on the hyperbolic equation y=m1+m2*m0/(m3+m0), where y=MFI at different αvβ8 concentrations; m0=αvβ8 concentration; m1=MFI with no αvβ8; m2=MFI at saturation; and m3=KD. […]
We then created a scFV yeast display library (Library 3) with degenerate positions coding for novel amino acids (i.e. not in germline human or mouse Ig sequence databases), back mutations to mouse from clone H1.1, as well as final humanization of Fr4 VH and VL based on the human germline (SEQ ID NO: 29, 30 and 32). […] After induction and screening of the pooled transformants for scFV expression using anti-V5 (clone SV5), the αvβ8 ectodomain was incubated with the yeast pool, washed and scFV which bound to αvβ8 were detected using anti-human αv (clone 8β8). […]

For assay [11] the target is unchanged. In words: MFI against concentration, fit y = m1 + m2*M0/(m3+M0), m3 = KD; paragraph 50 and paragraph 227 give these KD values for the yeast scFv with soluble αvβ8, the legend of FIG. 17 speaks of IgG4 on CHO αvβ8 cells.

T1 sequence (P06756 31-992 limits assumed, chain 1 of 2): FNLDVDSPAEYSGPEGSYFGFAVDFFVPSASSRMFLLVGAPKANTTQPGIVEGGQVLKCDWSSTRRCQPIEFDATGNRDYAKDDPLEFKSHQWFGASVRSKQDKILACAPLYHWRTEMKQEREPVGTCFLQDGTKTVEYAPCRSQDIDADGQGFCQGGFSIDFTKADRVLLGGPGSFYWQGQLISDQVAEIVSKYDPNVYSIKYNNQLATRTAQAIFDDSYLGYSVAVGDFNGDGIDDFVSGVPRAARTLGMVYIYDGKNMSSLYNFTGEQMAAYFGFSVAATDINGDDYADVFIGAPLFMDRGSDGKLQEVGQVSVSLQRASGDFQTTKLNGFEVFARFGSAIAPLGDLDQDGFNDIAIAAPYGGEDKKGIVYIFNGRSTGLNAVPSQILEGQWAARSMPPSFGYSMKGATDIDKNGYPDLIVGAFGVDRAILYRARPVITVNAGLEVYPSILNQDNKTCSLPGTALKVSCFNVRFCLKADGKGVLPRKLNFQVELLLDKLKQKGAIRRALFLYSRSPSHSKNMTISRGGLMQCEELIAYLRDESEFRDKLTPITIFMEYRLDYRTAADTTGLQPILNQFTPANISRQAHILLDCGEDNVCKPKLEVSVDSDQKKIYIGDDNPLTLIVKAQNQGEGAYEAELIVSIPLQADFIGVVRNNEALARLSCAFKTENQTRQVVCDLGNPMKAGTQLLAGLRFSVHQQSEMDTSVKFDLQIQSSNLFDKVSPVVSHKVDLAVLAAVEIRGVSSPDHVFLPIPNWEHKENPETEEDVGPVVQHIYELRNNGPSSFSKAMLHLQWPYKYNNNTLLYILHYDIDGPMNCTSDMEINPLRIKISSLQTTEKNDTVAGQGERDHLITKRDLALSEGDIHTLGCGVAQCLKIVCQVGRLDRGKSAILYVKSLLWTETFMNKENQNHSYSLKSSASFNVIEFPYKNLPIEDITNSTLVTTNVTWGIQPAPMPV
T1 sequence (P26012 43-681 limits assumed, chain 2 of 2): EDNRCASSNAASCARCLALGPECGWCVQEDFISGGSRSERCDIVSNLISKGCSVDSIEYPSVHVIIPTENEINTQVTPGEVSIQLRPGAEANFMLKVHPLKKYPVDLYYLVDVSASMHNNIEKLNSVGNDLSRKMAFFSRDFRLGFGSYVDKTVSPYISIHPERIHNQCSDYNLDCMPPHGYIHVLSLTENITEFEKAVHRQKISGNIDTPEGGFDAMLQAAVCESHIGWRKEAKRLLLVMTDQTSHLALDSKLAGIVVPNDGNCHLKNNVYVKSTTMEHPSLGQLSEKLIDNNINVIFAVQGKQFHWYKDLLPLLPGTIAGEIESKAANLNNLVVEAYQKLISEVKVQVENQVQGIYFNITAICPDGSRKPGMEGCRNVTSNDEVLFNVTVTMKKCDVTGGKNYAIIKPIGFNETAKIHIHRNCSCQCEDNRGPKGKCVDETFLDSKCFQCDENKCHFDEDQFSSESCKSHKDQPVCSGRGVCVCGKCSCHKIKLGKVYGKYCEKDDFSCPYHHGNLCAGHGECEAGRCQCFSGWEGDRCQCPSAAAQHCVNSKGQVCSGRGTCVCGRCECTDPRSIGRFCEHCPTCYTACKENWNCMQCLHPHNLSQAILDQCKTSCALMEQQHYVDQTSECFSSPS
T2 sequence (P06756 31-1048, chain 1 of 2): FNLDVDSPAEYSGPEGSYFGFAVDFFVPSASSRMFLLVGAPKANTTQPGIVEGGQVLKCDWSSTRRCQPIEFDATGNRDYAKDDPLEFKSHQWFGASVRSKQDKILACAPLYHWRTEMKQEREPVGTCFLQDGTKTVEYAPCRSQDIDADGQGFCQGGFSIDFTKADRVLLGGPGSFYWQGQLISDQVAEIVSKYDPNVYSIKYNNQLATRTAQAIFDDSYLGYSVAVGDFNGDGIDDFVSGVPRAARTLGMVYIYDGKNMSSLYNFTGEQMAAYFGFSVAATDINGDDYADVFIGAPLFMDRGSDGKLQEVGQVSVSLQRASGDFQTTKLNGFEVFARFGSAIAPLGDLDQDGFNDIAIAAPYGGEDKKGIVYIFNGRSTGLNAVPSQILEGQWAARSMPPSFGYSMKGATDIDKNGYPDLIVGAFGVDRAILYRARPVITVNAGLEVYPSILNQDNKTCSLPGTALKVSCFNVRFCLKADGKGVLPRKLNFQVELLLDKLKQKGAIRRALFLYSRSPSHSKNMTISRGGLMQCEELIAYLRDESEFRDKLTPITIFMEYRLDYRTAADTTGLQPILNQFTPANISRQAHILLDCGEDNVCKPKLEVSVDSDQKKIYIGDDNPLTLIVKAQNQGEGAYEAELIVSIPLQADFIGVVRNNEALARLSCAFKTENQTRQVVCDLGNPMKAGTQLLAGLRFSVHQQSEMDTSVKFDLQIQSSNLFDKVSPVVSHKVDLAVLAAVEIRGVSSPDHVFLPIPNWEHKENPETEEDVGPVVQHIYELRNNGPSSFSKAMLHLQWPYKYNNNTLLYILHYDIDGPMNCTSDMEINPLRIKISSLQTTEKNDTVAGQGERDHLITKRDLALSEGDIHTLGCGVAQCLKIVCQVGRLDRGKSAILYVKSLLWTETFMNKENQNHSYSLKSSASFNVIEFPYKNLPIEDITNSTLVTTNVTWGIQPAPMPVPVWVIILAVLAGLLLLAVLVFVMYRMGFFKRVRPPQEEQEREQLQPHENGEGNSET
T2 sequence (P26012 43-769, chain 2 of 2): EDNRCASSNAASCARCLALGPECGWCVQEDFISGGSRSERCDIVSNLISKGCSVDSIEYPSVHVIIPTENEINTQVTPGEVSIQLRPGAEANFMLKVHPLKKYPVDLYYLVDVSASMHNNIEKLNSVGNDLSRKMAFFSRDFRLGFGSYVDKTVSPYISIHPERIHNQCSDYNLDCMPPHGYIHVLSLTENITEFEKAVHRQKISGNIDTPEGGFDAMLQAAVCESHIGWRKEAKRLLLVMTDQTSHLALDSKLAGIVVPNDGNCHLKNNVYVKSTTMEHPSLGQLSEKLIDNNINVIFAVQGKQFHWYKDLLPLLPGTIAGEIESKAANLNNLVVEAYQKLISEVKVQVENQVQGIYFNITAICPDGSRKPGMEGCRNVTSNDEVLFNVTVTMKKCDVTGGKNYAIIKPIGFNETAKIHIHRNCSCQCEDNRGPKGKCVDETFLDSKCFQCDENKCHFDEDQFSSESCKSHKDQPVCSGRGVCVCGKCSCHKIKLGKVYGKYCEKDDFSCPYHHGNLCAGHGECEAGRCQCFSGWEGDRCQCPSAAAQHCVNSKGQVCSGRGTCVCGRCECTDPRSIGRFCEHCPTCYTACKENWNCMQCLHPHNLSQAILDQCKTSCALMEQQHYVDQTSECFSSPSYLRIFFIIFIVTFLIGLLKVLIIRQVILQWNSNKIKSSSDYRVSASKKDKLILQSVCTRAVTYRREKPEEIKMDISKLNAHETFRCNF
Sequence of integrin αvβ6 ectodomain (immobilized) (P06756 31-992, chain 1 of 2): as the sequence (P06756 31-992 limits assumed, chain 1 of 2) above
Sequence of integrin αvβ6 ectodomain (immobilized) (P18564 22-709, chain 2 of 2): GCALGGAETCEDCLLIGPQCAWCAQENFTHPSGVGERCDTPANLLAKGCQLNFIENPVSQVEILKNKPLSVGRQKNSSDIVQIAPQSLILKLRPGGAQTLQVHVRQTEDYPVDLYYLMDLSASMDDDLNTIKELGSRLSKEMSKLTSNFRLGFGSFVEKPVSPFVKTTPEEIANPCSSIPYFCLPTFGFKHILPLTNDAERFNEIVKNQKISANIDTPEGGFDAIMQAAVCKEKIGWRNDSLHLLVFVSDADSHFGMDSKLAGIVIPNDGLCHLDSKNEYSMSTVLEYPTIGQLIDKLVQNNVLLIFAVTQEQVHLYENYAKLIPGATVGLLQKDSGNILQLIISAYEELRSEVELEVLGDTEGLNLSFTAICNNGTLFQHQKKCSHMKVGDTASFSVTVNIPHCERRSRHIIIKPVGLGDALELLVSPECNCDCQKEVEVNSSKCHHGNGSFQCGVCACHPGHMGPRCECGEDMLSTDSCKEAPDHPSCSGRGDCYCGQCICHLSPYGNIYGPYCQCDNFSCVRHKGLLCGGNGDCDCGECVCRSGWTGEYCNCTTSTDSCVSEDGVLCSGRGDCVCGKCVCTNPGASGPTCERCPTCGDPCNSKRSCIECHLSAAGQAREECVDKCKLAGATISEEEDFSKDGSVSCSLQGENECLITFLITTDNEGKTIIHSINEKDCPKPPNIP

3G9 (anti-β6), mouse IgG2a (antibody) had an ED50 of the inhibition of αvβ6-mediated TGF-β activation (immobilized human αvβ6, TMLC GARP/L-TGF-β reporter cells) in [1] of 0.22 µg/mL.

B1: ADWA11 2.4 antibody (from US2020/0079855 A1) (antibody, V domains shown)
VH: EVQLVESGGGLVQPGGSLRLSCAASGFNIKDYYMNWVRQAPGKGLEWVGWIDPDQGNTIYEPKFQGRFTISADTSKNSAYLQMNSLRAEDTAVYYCARRLLMDYWGQGTLVTVSS
VL: DIQMTQSPSSLSASVGDRVTITCRSTKSLSHFNGNTYLFWYQQKPGKAPKRLIYYMSSLASGVPSRFSGSGSGTDFTLTISSLQPEDFATYYCQQSLEYPFTFGGGTKVEIKR
For the molecule B1, in assay [2], the “EC50 of the inhibition of αvβ8-mediated TGF-β activation (TMLC GARP/TGF-β luciferase reporter cells on αvβ8-coated wells)” value came out at 274 µg/mL. The dissociation constant (Kd) was found to be 56 nM in assay [3] and 20 nM in assay [4].

B2: HuF12 IgG2a (antibody)
heavy: QIQLVQSGAEVKKPGASVKISCKASGYTFTKYSMHWVRQAPGQGLEWVARINTETGEPTFADDFRGRFTVTLDTSTSTAYLEIRSLRSDDTAVYFCAIFYYGRDTWGQGTTLTVSSASTKGPSVFPLAPSSKSTSGGTAALGCLVKDYFPEPVTVSWNSGALTSGVHTFPAVLQSSGLYSLSSVVTVPSSSLGTQTYICNVNHKPSNTKVDKKIVPRDCGCKPCICTVPEVSSVFIFPPKPKDVLTITLTPKVTCVVVDISKDDPEVQFSWFVDDVEVHTAQTQPREEQFNSTFRSVSELPIMHQDWLNGKEFKCRVNSAAFPAPIEKTISKTKGRPKAPQVYTIPPPKEQMAKDKVSLTCMITDFFPEDITVEWQWNGQPAENYKNTQPIMDTDGSYFVYSKLNVQKSNWEAGNTFTCSVLHEGLHNHHTEKSLSHSPGK
VL: EIVMTQSPATLSVSPGERVTMSCKSSQSLLHSRSRKNYLAWYQQKPGQAPRLLIYWASTRESGVPARFSGSGSGTEFTLTISSVQSEDFAVYYCKQSYNLLSFGQGTVLEIKR
Consider B2, for which, in [5], the “ED50 of the inhibition of αvβ8-mediated TGF-β activation (immobilized αvβ8, TMLC GARP/L-TGF-β reporter cells)” value turned out to be 0.02 µg/mL. The “IC50 of the inhibition of TGF-β activation (TMLC GARP/TGF-β1 reporter cells on αvβ8-coated wells)” value in assay [6] worked out at 0.0922 µg/mL. For the same molecule, the “EC50 of inhibition of αvβ8-mediated TGF-β activation” value in assay [7] was determined as 200 nM. The “IC50 (read off the curve)” value in assay [8] is about 0.3 µg/mL.

B3: HuC6D4F12 (format not stated) (antibody, V domains shown)
VH: QIQLVQSGAEVKKPGASVKISCKASGYTFTKYSMHWVRQAPGQGLEWVARINTETGEPTFADDFRGRFTVTLDTSTSTAYLEIRSLRSDDTAVYFCAIFYYGRDTWGQGTTLTVSS
VL: B2 VL
notes: also called HuF12; huF12
On to B3, for which the Kd was 0.00236 nM in assay [9], 6.4 nM in [3] and 2.6 nM in assay [4].

B4: HuF12 scFv displayed on yeast (scFv, V domains shown)
VH: B3 VH
VL: B2 VL
notes: scFv in vector pYD4 on yeast; also called HuC6D4F12 scFV
B4: the Kd in assay [10] stood at 6.7 nM; in assay [11] it was 6.05 nM.

B5: H4C8 scFv displayed on yeast (scFv, V domains shown)
VH: QVQLVQSGAEVKKPGASVKVSCKVSGYTLTRQSMHWVRQAPGKGLEWMGRINTETGEPTYAQKFQGRVTMTQDTSTDTAYMELSSLRSEDTAVYFCAIFYYGRDTWGQGTTVTVSS
VL: B2 VL with M21L, K24R, S62T, V84L, V108K, L109V
notes: scFv in pYD4 on yeast
Consider B5, for which the results for the Kd in assay [10] and in assay [11] were 3.8 nM and 3.76 nM, respectively.
